Several values for one entry are separate records, joined by “and”; a condition that tells them apart may be missing. Equal entries are not always repeated.
Experiments:
[1] = target: recombinant factor H-like protein 1 (human) (UniProt P08603); experiment: SPR; Biacore T100, CM5 chip; FH (750 RU), rFHL-1 or rFH15-20 (200 RU) amine-coupled as ligands; CspZ or FhbA as analytes; PBS with 0.05% Tween20, 25 °C, 30 µl/min; single-cycle and multiple-cycle kinetics, Langmuir 1:1 model; in duplicate
[2] = target: factor H binding A (FhbA) from Borrelia hermsii (Borrelia hermsii); experiment: SEC-MALS; Superdex 200 increase 10/300 GL in PBS, 0.7 mL/min; 100 µL injected at about 3.75 mg/mL (CspZ) or 2.50 mg/mL (FhbA)
[3] = target: factor H binding A (FhbA) from Borrelia hermsii (Borrelia hermsii); experiment: LC-HRMS (ESI-Q-TOF); ACE C4 column, 0.1% formic acid/acetonitrile gradient, ESI+, deconvolution with UniDec
[4] = target: purified human complement factor H from human plasma/serum (human) (UniProt P08603); experiment: SPR; Biacore T100, CM5 chip; FH (750 RU), rFHL-1 or rFH15-20 (200 RU) amine-coupled as ligands; CspZ or FhbA as analytes; PBS with 0.05% Tween20, 25 °C, 30 µl/min; single-cycle and multiple-cycle kinetics, Langmuir 1:1 model; in duplicate
Sequence of purified human complement factor H from human plasma/serum (human) (P08603 19-1231): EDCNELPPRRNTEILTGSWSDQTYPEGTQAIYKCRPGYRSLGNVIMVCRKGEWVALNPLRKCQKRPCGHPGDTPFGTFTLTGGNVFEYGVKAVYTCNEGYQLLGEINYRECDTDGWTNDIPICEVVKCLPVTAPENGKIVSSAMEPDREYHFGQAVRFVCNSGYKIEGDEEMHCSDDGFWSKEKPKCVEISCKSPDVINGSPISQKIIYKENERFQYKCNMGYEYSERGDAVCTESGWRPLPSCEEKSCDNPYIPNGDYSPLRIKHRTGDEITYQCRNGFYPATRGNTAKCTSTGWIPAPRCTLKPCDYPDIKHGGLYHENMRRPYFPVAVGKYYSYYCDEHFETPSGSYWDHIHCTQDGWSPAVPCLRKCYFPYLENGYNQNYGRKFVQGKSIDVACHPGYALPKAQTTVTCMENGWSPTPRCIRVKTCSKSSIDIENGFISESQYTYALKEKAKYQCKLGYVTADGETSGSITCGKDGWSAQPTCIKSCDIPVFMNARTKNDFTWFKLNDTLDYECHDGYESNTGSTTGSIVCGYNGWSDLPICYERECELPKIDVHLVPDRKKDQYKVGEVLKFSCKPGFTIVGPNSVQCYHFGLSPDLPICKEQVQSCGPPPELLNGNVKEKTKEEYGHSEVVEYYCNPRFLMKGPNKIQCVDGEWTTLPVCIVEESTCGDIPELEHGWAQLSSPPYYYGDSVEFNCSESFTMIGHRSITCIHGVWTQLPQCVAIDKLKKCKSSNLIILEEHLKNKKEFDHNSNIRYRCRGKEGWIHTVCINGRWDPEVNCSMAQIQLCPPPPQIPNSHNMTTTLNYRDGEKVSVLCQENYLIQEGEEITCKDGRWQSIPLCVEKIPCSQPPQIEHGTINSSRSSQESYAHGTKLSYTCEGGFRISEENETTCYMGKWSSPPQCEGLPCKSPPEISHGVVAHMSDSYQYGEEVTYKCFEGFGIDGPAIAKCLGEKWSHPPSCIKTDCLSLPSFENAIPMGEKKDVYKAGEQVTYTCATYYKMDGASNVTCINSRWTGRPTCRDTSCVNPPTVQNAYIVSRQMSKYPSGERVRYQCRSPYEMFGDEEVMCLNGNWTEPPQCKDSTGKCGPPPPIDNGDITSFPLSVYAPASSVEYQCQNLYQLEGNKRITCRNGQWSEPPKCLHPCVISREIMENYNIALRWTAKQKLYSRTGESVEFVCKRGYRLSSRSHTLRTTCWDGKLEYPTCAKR

[5] = target: recombinant factor H SCR15-20 (human) (UniProt P08603); experiment: as above
Sequence of recombinant factor H SCR15-20 (human) (P08603 860-1231): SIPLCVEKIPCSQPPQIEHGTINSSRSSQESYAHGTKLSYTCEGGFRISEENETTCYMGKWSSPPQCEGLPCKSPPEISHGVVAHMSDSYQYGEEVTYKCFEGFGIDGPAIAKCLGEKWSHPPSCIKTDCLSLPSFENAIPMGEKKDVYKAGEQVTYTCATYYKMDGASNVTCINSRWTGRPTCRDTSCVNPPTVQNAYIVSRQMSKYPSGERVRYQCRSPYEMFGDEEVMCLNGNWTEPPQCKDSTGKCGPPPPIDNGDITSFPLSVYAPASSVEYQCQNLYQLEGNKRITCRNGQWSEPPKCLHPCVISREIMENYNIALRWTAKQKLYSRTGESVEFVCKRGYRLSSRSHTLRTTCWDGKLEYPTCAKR

Sequence of recombinant factor H-like protein 1 (human) (P08603 other isoform, or with tags, fused parts or gaps): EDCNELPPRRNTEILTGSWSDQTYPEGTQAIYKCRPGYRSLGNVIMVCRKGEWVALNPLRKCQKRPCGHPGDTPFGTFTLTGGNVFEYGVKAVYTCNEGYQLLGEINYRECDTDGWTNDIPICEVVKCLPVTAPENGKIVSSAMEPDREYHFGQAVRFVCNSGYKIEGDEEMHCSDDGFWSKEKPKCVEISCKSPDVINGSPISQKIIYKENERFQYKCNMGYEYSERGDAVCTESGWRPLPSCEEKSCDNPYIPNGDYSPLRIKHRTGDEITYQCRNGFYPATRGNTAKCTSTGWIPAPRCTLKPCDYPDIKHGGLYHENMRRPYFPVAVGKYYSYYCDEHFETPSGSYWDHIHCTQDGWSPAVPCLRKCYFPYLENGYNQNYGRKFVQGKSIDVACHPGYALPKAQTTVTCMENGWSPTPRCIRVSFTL

Row | Substance | Kd [1] [nM] | koff [1] [s⁻¹] | kon [1] [M⁻¹ s⁻¹] | representation of the dimer peak (46.2 kDa) in the sample (%) [2] [%] | representation of the pentamer peak (119.0 kDa) in the sample (%) [2] [%] | representation of the trimer peak (71.7 kDa) in the sample (%) [2] [%] | stoichiometry N [2] | stoichiometry N [3] | Kd [4] [nM] | koff [4] [s⁻¹] | kon [4] [M⁻¹ s⁻¹] | Kd [5] [nM] | koff [5] [s⁻¹] | kon [5] [M⁻¹ s⁻¹]
1 | CspZ from Borrelia burgdorferi sensu stricto (complement regulator-acquiring surface protein 2) (from UniProt O50665 1-236) (natural protein) | 0.044 | 3.1e-05 | 720000 | – | – | – | – | – | – | – | – | – | – | –
2 | factor H binding A (FhbA) from Borrelia hermsii (natural protein) | 42.9 | 6.74e-05 | 1570 | 27 | 1 | 6 | 2 and 3 and 5 | 2 | 1.09 | 0.000268 | 246000 | 3.37 | 0.000266 | 85400

— paper PMC11266248
